Data: article doi:10.1101/634915 (bioRxiv, 2019)

Target: RlucII-Rab7A (UniProt P51149 1-207)
Assay: FRET or BRET

RlucII-Rab7A, sequence (P51149 whole entry): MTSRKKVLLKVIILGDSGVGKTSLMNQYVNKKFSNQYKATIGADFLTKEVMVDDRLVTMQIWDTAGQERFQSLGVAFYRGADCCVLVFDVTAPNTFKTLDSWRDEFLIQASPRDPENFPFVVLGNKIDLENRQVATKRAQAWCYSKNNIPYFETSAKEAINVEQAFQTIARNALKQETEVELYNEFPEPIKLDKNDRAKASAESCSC

B1: PLEKHM1-GFP10 (natural protein, UniProt Q9Y4G2 1-1056, looked up)
chain: MLSVVENGLDPQAAIPVIKKKLVGSVKALQKQYVSLDTVVTSEDGDANTMCSALEAVFIHGLHAKHIRAEAGGKRKKSAHQKPLPQPVFWPLLKAVTHKHIISELEHLTFVNTDVGRCRAWLRLALNDGLMECYLKLLLQEQARLHEYYQPTALLRDAEEGEFLLSFLQGLTSLSFELSYKSAILNEWTLTPLALSGLCPLSELDPLSTSGAELQRKESLDSISHSSGSEDIEVHHSGHKIRRNQKLTASSLSLDTASSSQLSCSLNSDSCLLQENGSKSPDHCEEPMSCDSDLGTANAEDSDRSLQEVLLEFSKAQVNSVPTNGLSQETEIPTPQASLSLHGLNTSTYLHCEAPAEPLPAQAASGTQDGVHVQEPRPQAPSPLDLQQPVESTSGQQPSSTVSETAREVGQGNGLQKAQAHDGAGLKLVVSSPTSPKNKSWISEDDFYRPSREQPLESASDHPIASYRGTPGSRPGLHRHFSQEPRKNCSLGALDQACVPSPGRRQAQAAPSQGHKSFRVVHRRQMGLSNPFRGLMKLGTVERRGAMGIWKELFCELSPLEFRLYLSNEEHTCVENCSLLRCESVGPAHSDGRFELVFSGKKLALRASSQDEAEDWLDRVREALQKVRPQQEDEWVNVQYPDQPEEPPEAPQGCLSPSDLLSEPAALQGTQFDWSSAQVPEPDAIKESLLYLYMDRTWMPYIFSLSLEALKCFRIRNNEKMLSDSHGVETIRDILPDTSLGGPSFFKIITAKAVLKLQAGNAEEAALWRDLVRKVLASYLETAEEAVTLGGSLDENCQEVLKFATRENGFLLQYLVAIPMEKGLDSQGCFCAGCSRQIGFSFVRPKLCAFSGLYYCDICHQDDASVIPARIIHNWDLTKRPICRQALKFLTQIRAQPLINLQMVNASLYEHVERMHLIGRRREQLKLLGDYLGLCRSGALKELSKRLNHRNYLLESPHRFSVADLQQIADGVYEGFLKALIEFASQHVYHCDLCTQRGFICQICQHHDIIFPFEFDTTVRCAECKTVFHQSCQAVVKKGCPRCARRRKYQEQNIFA
fold change of BRET50, CLN3-KO against wild-type HeLa cells: 3.5 fold
